Data published in article PMC6980855.
One block for each substance: values may come before it.

Experiments:
[1] = molecular target: Alexa568-labeled BimL (single-cysteine mutant BimL Q41C) (mouse (M. musculus)); assay: FRET or BRET; in solution, no membranes; 20 nM Alexa568-labeled BimL protein (donor) with increasing Alexa647-labeled Bcl-XL (acceptor); fit: one site, specific binding with Hill slope (BimL-dCTS: another model with a constant fixed at 4)
[2] = molecular target: Alexa568-labeled BimL-4E (mouse (M. musculus)); assay: as above
[3] = molecular target: Alexa568-labeled BimL-CTS2A (mouse (M. musculus)); assay: as above
[4] = molecular target: Alexa568-labeled BimL-I125E (mouse (M. musculus)); assay: as above
[5] = molecular target: Alexa568-labeled BimL-I132E (mouse (M. musculus)); assay: as above
[6] = molecular target: Alexa568-labeled BimL-L129E (mouse (M. musculus)); assay: as above
[7] = molecular target: Alexa568-labeled BimL-V124E (mouse (M. musculus)); assay: as above
[8] = molecular target: Alexa568-labeled BimL-dCTS (mouse (M. musculus)); assay: as above
[9] = molecular target: Alexa647-labeled Bax (single cysteine mutant 126C) (human (H. sapiens)) (UniProt Q07812)
[10] = molecular target: BimL-I125E (Alexa568-labeled, recombinant) (murine); assay: FRET or BRET; values of Figure 6B (Alexa568-labeled BimL mutant, Alexa647-labeled Bcl-XL); the sentence does not say whether in solution or with liposomes
[11] = molecular target: BimL-dCTS (Alexa568-labeled, recombinant) (murine); assay: FRET or BRET; with mitochondrial-like liposomes present; constant Alexa568-labeled BimL protein (4 or 20 nM), Alexa647-labeled Bax or Bcl-XL titrated; apparent Kd
[12] = molecular target: BimL-dCTS (Alexa568-labeled, recombinant) (murine); assay: FRET or BRET; with mouse liver mitochondria present (Bak-/-; 0.2 mg/mL in Figure 7—figure supplement 1B); 4 nM Alexa568-labeled BimL protein, Alexa647-labeled Bax or Bcl-XL titrated; apparent Kd
[13] = molecular target: BimL-dCTS (Alexa568-labeled, recombinant) (murine); assay: FRET or BRET; in solution, no membranes; constant Alexa568-labeled BimL protein (donor; 4, 10 or 20 nM), Alexa647-labeled Bax or Bcl-XL (acceptor) titrated; FRET from the decrease in Alexa568 fluorescence; Tecan infinite M1000
[14] = molecular target: Bax (single cysteine 126C, Alexa647-labeled, recombinant) (H. sapiens) (UniProt Q07812)
[15] = molecular target: Bax (single cysteine 126C, Alexa647-labeled, recombinant) (H. sapiens) (UniProt Q07812); remark: listed apart in the source
[16] = molecular target: Alexa568-labeled BimL-dCTS (mouse (M. musculus)); assay: FRET or BRET; with mouse liver mitochondria present; 4 nM Alexa568-labeled BimL or BimL-dCTS with increasing Alexa647-labeled Bax; fit in the sheet: Kd fitting advanced (donor fixed at 4)
[17] = molecular target: Alexa568-labeled BimL-4E (mouse (M. musculus)); assay: FRET or BRET; in solution, no membranes; constant Alexa568-labeled BimL protein (donor; 4 nM by the legend of Figure 3C, 20 nM by that of Figure 6-figure supplement 1) with increasing Alexa647-labeled Bax (acceptor); FRET from the decrease in Alexa568 fluorescence; fit: one site, specific binding with Hill slope

Alexa647-labeled Bax (single cysteine mutant 126C) (human (H. sapiens)), sequence (Q07812 other isoform, or with tags, fused parts or gaps mutant): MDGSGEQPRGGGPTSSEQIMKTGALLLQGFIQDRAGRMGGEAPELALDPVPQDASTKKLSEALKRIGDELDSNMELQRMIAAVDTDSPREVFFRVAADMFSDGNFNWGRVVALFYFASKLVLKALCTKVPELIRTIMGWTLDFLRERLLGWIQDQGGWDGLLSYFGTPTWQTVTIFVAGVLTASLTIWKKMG
Bax (single cysteine 126C, Alexa647-labeled, recombinant) (H. sapiens), sequence (Q07812 whole entry C62A): as the sequence (Q07812 other isoform, or with tags, fused parts or gaps mutant) above
Alexa568-labeled BimL-4E (mouse (M. musculus)), sequence (main, as listed by the source): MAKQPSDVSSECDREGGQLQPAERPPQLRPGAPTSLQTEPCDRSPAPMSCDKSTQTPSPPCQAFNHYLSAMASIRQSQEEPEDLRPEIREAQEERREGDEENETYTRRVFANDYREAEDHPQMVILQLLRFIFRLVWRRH

- Kd [1]: 8.28 nM
- Kd [2]: 70600 nM
- Kd [3]: 10.9 nM
- Kd [4]: 8.06 nM
- Kd [5]: 9.75 nM
- Kd [6]: 9.07 nM
- Kd [7]: 11.3 nM
- Kd [8]: 17.2 nM
Substance: Alexa647-labeled Bcl-XL (single cysteine mutant 152C) (from UniProt Q07817-1 1-233) (natural protein)

- EC50 of Bax (100 nM) activation by BimL-I132E: ANTS/DPX release from liposomes [9]: 2800 nM
Substance: Alexa568-labeled BimL-I132E (natural protein)

- EC50 of Bax (100 nM) activation by BimL-I125E: ANTS/DPX release from liposomes [9]: 105 nM
Substance: Alexa568-labeled BimL-I125E (natural protein)

- EC50 of Bax (100 nM) activation by BimL: ANTS/DPX release from liposomes [9]: 0.549 nM
Substance: Alexa568-labeled BimL (single-cysteine mutant BimL Q41C) (natural protein)

- Kd [10]: < 3 nM
- Kd [11]: 35 nM
- Kd [12]: 35 nM
- Kd [13]: < 16 nM
Substance: Bcl-XL (single cysteine 152C, Alexa647-labeled, recombinant) (from UniProt Q07817-1 1-233) (natural protein)

- EC50 of Bax (100 nM) activation by BimL-dCTS: ANTS/DPX release from liposomes [9]: 489000 nM
Substance: Alexa568-labeled BimL-dCTS (domain or fragment)

- ANTS/DPX release after adding increasing Bax to isolated liposomes carrying ~5 nM membrane-bound BimL [14]: 60%
- EC50 of Bax-mediated permeabilisation of ANTS/DPX liposomes (100 nM Bax) [15]: 1 nM
Substance: BimL (single cysteine Q41C, Alexa568-labeled, recombinant) (natural protein)

- Kd [16]: 5.75 nM
- Kd [17]: 74900 nM
Substance: Alexa647-labeled Bax (single cysteine mutant 126C) (from UniProt Q07812 1-192) (natural protein)

- EC50 of Bax-mediated permeabilisation of ANTS/DPX liposomes (100 nM Bax) [15]: 100 nM
Substance: BimL-I125E (Alexa568-labeled, recombinant) (natural protein)

- EC50 of Bax (100 nM) activation by BimL-L129E: ANTS/DPX release from liposomes [9]: 2170 nM
Substance: Alexa568-labeled BimL-L129E (natural protein)

- EC50 of Bax (100 nM) activation by BimL-V124E: ANTS/DPX release from liposomes [9]: 1.21 nM
Substance: Alexa568-labeled BimL-V124E (natural protein)
